According to publication PMC9482650, “Quantitative fragmentomics allow affinity mapping of interactomes” (Nature Communications, 2022):

Key:
Experiment in all cases: holdup assay
Design in all cases: key: below the threshold = too weak to quantify, mostly under pKd 3.1 to 4
SNTG1, Q9NSN8 = target: T1, SNTG1, Q9NSN8
T1 sequence (Q9NSN8 52-150, limits assumed, looked up): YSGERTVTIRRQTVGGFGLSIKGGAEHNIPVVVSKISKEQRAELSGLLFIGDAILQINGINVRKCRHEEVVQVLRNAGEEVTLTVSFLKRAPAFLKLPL

PDZD7_3, Q9H5P4 = target: T2, PDZD7_3, Q9H5P4
T2 sequence (Q9H5P4 857-944, limits assumed, looked up): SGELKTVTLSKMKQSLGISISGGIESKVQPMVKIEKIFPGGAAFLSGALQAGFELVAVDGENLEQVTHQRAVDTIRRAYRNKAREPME

DLG3_1, Q92796 = target: T3, DLG3_1, Q92796
T3 sequence (Q92796 125-227, limits assumed, looked up): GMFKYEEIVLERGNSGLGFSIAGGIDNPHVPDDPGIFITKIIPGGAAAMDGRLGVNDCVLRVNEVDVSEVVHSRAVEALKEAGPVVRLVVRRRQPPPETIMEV

TX1BP3, O14907 = target: T4, TX1BP3, O14907
T4 sequence (O14907 10-122, limits assumed, looked up): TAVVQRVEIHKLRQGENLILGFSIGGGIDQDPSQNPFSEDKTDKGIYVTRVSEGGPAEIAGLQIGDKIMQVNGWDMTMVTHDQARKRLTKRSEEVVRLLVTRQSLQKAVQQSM

IL16_3, Q14005 = target: IL16_3, Q14005
Chain of IL16_3, Q14005 (Q14005 1107-1207): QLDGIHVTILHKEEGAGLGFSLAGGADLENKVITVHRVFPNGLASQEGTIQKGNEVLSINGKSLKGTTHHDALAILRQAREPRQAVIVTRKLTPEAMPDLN

SYNJ2BP, P57105 = target: T5, SYNJ2BP, P57105
T5 sequence (P57105 8-110, limits assumed, looked up): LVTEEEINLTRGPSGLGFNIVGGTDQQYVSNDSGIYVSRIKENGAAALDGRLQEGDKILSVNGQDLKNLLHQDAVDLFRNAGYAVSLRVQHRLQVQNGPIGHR

DFNB31_2, Q9P202 = target: T6, DFNB31_2, Q9P202
T6 sequence (Q9P202 274-371, limits assumed, looked up): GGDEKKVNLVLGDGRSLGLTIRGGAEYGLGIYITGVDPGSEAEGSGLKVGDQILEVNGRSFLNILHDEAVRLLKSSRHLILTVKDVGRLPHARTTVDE

Inadl_8, Q8NI35 = target: Inadl_8, Q8NI35
Chain of Inadl_8, Q8NI35 (Q8NI35 1425-1530): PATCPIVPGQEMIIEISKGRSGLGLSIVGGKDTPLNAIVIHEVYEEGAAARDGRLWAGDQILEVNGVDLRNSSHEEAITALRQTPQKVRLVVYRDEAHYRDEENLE

GRIP2_5, Q9C0E4 = target: GRIP2_5, Q9C0E4
Chain of GRIP2_5, Q9C0E4 (Q9C0E4 544-642): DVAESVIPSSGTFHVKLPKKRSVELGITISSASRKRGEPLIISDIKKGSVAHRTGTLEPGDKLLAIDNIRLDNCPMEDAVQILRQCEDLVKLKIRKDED

MPDZ_10, O75970 = target: T7, MPDZ_10, O75970
T7 sequence (O75970 1624-1722, limits assumed, looked up): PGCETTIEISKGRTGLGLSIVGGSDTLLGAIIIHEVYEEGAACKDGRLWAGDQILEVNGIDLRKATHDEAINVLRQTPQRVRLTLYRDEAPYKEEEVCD

CASK, O14936 = target: CASK, O14936
Chain of CASK, O14936 (O14936 487-570): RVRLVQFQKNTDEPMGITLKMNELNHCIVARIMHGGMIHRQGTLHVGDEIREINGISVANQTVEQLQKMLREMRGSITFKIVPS

MAGI1_2, Q96QZ7 = target: MAGI1_2, Q96QZ7
Chain of MAGI1_2, Q96QZ7 (Q96QZ7 456-580): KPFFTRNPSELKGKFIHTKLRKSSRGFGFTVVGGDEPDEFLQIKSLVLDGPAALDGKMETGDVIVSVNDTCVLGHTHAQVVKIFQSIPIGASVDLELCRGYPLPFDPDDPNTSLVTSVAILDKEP

TJP1_2, Q07157 = target: TJP1_2, Q07157
Chain of TJP1_2, Q07157 (Q07157 181-274): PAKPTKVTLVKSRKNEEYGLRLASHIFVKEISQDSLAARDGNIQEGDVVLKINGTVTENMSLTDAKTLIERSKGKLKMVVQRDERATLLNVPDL

FRMPD2_3, Q68DX3 = target: FRMPD2_3, Q68DX3
Chain of FRMPD2_3, Q68DX3 (Q68DX3 1073-1166): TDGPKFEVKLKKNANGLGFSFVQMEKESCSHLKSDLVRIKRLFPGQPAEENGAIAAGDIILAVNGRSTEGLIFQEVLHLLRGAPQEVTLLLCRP

HTRA2, O43464 = target: HTRA2, O43464
Chain of HTRA2, O43464 (O43464 355-458): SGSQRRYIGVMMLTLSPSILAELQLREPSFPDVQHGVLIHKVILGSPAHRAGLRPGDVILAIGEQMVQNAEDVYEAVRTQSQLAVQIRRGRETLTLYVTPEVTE

GRIP1_3, Q9Y3R0 = target: T8, GRIP1_3, Q9Y3R0
T8 sequence (Q9Y3R0 247-346, limits assumed, looked up): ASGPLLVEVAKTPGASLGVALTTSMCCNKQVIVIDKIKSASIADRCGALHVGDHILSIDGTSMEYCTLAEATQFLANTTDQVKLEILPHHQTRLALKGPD

LNX1_1, Q8TBB1 = target: LNX1_1, Q8TBB1
Chain of LNX1_1, Q8TBB1 (Q8TBB1 261-371): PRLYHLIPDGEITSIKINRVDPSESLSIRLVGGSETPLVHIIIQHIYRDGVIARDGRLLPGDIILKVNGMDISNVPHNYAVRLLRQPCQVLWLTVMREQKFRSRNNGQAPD

DLG4_3, P78352 = target: DLG4_3, P78352
Chain of DLG4_3, P78352 (P78352 306-403): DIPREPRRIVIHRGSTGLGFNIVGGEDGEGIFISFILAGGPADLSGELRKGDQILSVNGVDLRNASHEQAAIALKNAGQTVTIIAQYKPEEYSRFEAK

PTPN3, P26045 = target: PTPN3, P26045
Chain of PTPN3, P26045 (P26045 505-587): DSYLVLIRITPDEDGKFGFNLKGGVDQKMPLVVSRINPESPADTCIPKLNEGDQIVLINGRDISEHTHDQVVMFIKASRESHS

PDZRN4_1, Q6ZMN7 = target: PDZRN4_1, Q6ZMN7
Chain of PDZRN4_1, Q6ZMN7 (Q6ZMN7 213-318): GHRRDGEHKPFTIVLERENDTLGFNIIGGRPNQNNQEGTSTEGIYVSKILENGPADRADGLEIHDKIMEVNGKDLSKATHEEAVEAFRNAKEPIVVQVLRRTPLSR

IL16_1, Q14005 = target: IL16_1, Q14005
Chain of IL16_1, Q14005 (Q14005 210-306): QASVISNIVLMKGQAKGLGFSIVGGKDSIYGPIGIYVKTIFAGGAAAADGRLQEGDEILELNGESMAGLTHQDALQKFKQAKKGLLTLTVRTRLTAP

GORASP2, Q9H8Y8 = target: GORASP2, Q9H8Y8
GORASP1, Q9BQQ3 = target: GORASP1, Q9BQQ3
Chain of GORASP1, Q9BQQ3 (Q9BQQ3 1-208): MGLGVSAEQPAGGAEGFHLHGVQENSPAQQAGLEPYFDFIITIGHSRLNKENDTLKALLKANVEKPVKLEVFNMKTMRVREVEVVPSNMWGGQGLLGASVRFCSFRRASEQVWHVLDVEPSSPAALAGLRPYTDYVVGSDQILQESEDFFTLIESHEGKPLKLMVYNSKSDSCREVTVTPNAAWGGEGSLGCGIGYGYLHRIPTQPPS

GRIP2_3, Q9C0E4 = target: GRIP2_3, Q9C0E4
Chain of GRIP2_3, Q9C0E4 (Q9C0E4 238-339): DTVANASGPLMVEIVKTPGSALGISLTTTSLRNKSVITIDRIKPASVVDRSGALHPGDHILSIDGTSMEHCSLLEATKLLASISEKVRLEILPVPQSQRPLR

APBA2_2, Q99767 = target: T9, APBA2_2, Q99767
T9 sequence (Q99767 654-744, limits assumed, looked up): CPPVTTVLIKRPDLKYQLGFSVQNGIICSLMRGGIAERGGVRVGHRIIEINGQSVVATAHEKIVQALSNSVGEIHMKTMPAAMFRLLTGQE

GRID2IP_1, A4D2P6 = target: GRID2IP_1, A4D2P6
Chain of GRID2IP_1, A4D2P6 (A4D2P6 1-87): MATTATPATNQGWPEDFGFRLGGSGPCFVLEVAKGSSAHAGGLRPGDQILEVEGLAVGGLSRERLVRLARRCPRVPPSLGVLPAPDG

MPDZ_5, O75970 = target: T10, MPDZ_5, O75970
T10 sequence (O75970 695-796, limits assumed, looked up): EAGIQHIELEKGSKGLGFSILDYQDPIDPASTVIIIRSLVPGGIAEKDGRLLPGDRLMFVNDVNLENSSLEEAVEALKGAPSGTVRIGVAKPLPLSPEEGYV

NHERF4_4, Q86UT5 = target: NHERF4_4, Q86UT5
Chain of NHERF4_4, Q86UT5 (Q86UT5 464-550): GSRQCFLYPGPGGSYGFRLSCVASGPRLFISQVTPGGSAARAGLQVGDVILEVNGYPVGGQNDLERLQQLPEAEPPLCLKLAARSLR

[1] = plain residues with an end cap or a label only (N-terminal biotin on a linker: ahx)
[2] = plain residues with an end cap or a label only (N-terminal biotin on a linker: ttds)

Binder: TEAKLTETNA [MYO18A, Q92614]
- pKd (SNTG1, Q9NSN8; [1]): below the threshold
- pKd (PDZD7_3, Q9H5P4; [1]): below the threshold
- pKd (DLG3_1, Q92796; [1]): below the threshold
- pKd (TX1BP3, O14907; [1]): below the threshold
- pKd (IL16_3, Q14005; [1]): below the threshold
- pKd (SYNJ2BP, P57105; [1]): below the threshold
- pKd (DFNB31_2, Q9P202; [1]): below the threshold
- pKd (Inadl_8, Q8NI35; [1]): below the threshold
- pKd (GRIP2_5, Q9C0E4; [1]): below the threshold
- pKd (MPDZ_10, O75970; [1]): below the threshold
- pKd (CASK, O14936; [1]): below the threshold
- pKd (MAGI1_2, Q96QZ7; [1]): below the threshold
- pKd (TJP1_2, Q07157; [1]): below the threshold
- pKd (FRMPD2_3, Q68DX3; [1]): below the threshold
- pKd (HTRA2, O43464; [1]): below the threshold
- pKd (GRIP1_3, Q9Y3R0; [1]): below the threshold
- pKd (LNX1_1, Q8TBB1; [1]): below the threshold
- pKd (DLG4_3, P78352; [1]): below the threshold
- pKd (PTPN3, P26045; [1]): below the threshold
- pKd (PDZRN4_1, Q6ZMN7; [1]): below the threshold
- pKd (IL16_1, Q14005; [1]): below the threshold
- pKd (GORASP2, Q9H8Y8; [1]): below the threshold
- pKd (GORASP1, Q9BQQ3; [1]): below the threshold
- pKd (GRIP2_3, Q9C0E4; [1]): below the threshold
- pKd (APBA2_2, Q99767; [1]): below the threshold
- pKd (GRID2IP_1, A4D2P6; [1]): below the threshold
- pKd (MPDZ_5, O75970; [1]): below the threshold
- pKd (NHERF4_4, Q86UT5; [1]): below the threshold

Binder: IDNDTESTAL [ARHGAP17, Q68EM7]
- pKd (SNTG1, Q9NSN8; [2]): below the threshold
- pKd (PDZD7_3, Q9H5P4; [2]): 4.25
- pKd (DLG3_1, Q92796; [2]): below the threshold
- pKd (TX1BP3, O14907; [2]): below the threshold
- pKd (IL16_3, Q14005; [2]): below the threshold
- pKd (SYNJ2BP, P57105; [2]): 4.01
- pKd (DFNB31_2, Q9P202; [2]): below the threshold
- pKd (Inadl_8, Q8NI35; [2]): below the threshold
- pKd (GRIP2_5, Q9C0E4; [2]): below the threshold
- pKd (MPDZ_10, O75970; [2]): below the threshold
- pKd (CASK, O14936; [2]): below the threshold
- pKd (MAGI1_2, Q96QZ7; [2]): below the threshold
- pKd (TJP1_2, Q07157; [2]): below the threshold
- pKd (FRMPD2_3, Q68DX3; [2]): below the threshold
- pKd (HTRA2, O43464; [2]): below the threshold
- pKd (GRIP1_3, Q9Y3R0; [2]): below the threshold
- pKd (LNX1_1, Q8TBB1; [2]): below the threshold
- pKd (DLG4_3, P78352; [2]): below the threshold
- pKd (PTPN3, P26045; [2]): 4.76
- pKd (PDZRN4_1, Q6ZMN7; [2]): 4.26
- pKd (IL16_1, Q14005; [2]): below the threshold
- pKd (GORASP2, Q9H8Y8; [2]): below the threshold
- pKd (GORASP1, Q9BQQ3; [2]): below the threshold
- pKd (GRIP2_3, Q9C0E4; [2]): below the threshold
- pKd (APBA2_2, Q99767; [2]): below the threshold
- pKd (GRID2IP_1, A4D2P6; [2]): below the threshold
- pKd (MPDZ_5, O75970; [2]): below the threshold
- pKd (NHERF4_4, Q86UT5; [2]): below the threshold
